Paper doi:10.1101/2025.10.07.680968, “Widespread genomic heterogeneity at the type II NAD(P)H dehydrogenase locus predisposes Cryptosporidium to clofazimine resistance” (bioRxiv, 2025)

Key:
[1] = molecular target: T1, CpNDH2 (CpNDH2-WT; MBP-CpNDH2) (Cryptosporidium parvum, UniProt F0X6E5); experiment: inhibition of menadione reduction, NADH oxidation at […] nm; assay type: biochemical
T1 construct: gene cgd7_1900; full-length ORF (568 predicted residues), N-terminal MBP fusion from pMAL-c5X, E. coli BL21(DE3), amylose-resin purified

CC1=CC(=O)c2ccccc2C1=O = experiment: purified protein; details: 400 μM NADH, pH 7.0, 25 °C, 0.1% Triton X-100, Michaelis-Menten
[2] = tested on: COC1=C(OC)C(=O)C(C/C=C(\C)CCC=C(C)C)=C(C)C1=O; experiment: purified protein; details: 400 μM NADH, pH 7.0, 25 °C, 0.1% Triton X-100, intact MBP fusion, positive cooperativity
[3] = tested on: CC(C)=CCC/C(C)=C/CC/C(C)=C/CC/C(C)=C/CC1=C(C)C(=O)c2ccccc2C1=O; experiment: purified protein; details: 400 μM NADH, pH 7.0, 25 °C, 0.1% Triton X-100, intact MBP fusion, Michaelis-Menten
[4] = tested on: CC(C)N=c1cc2n(-c3ccc(Cl)cc3)c3ccccc3nc-2cc1Nc1ccc(Cl)cc1; experiment: purified protein; details: 400 μM NADH, pH 7.0, 25 °C, 0.1% Triton X-100, intact MBP fusion, positive cooperativity

T1 sequence (F0X6E5 entry or part of it): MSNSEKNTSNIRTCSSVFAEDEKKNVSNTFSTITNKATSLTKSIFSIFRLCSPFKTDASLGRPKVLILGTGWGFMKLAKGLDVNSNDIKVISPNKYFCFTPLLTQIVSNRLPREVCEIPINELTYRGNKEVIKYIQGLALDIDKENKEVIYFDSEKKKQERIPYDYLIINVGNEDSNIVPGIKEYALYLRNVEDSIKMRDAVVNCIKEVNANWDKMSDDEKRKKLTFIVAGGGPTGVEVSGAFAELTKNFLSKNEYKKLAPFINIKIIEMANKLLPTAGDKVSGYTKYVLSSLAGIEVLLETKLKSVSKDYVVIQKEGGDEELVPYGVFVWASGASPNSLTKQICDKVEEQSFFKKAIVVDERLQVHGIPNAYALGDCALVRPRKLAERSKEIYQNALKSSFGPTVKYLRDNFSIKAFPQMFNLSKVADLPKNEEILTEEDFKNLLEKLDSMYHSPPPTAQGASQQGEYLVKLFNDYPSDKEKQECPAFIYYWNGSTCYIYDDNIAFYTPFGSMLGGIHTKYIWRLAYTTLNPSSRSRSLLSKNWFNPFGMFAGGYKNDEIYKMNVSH

Molecule	IC50 [1] [µM]	Km (CC1=CC(=O)c2ccccc2C1=O) [µM]	K0.5 [2] [µM]	Km [3] [µM]	K0.5 [4] [µM]
CC(C)/N=c1\cc2n(-c3ccc(Cl)cc3)c3ccccc3nc-2cc1Nc1ccc(Cl)cc1 [CFZ, clofazimine]	2.95				
CpNDH2 (CpNDH2-WT; MBP-CpNDH2) (Cryptosporidium parvum)		113.7	7.17	139.3	30.0
